In PMC12412103, “An Amyloidogenic Fragment of the Spike Protein from SARS-CoV‑2 Virus Stimulates the Aggregation and Toxicity of Parkinson’s Disease Protein Alpha-Synuclein” (ACS Chemical Neuroscience, 2025):
“And” between values parts separate entries of the source, which are not always exact repeats. Identical values can stand only once.

What was measured:
[1] = target: α-synuclein (αSyn), wild type (human, UniProt P37840 1-140); experiment: ITC; settings: both partners purified
[2] = target: the molecule itself; experiment: dynamic light scattering

B1: Spike 194–203 (S194), fibrillogenic fragment of the Spike protein of SARS-CoV-2 (peptide)
peptide: FKNIDGYFKI
notes: also called mS194 (monomer); fS194 (fibrils)
[1]
  dH: -200 kcal/mol and -150 kcal/mol
[2]
  binding result: binds
